Results: patent publication US11766432B2, “Cleavable conjugates of catechol compounds and water-soluble polymers and methods of treatment using the same” (SERINA THERAPEUTICS, INC., priority 2018, dated 2023)
Where “and” joins values, the source holds several entries; their conditions need not be identical. Equal values may be shown once. Where a name gives a salt, the structure may show the parent alone. Read-outs that look alike come from different tables or passages of the source.

Legend:
skin at injection site [1] = details: for tolerability after SC injection: primates, single SC injection 1.5 mg/kg
[2] = Pharmacokinetics of free apomorphine in plasma after single SC infusion/injection; details: for dose dumping (burst effect): after single SC administration 1.5 mg/kg; for AUC0-168 / AUC0-inf / AUC0-last / Cmax / Tmax / time post-dose by which drug is completely cleared and below the limit of quantification (BLQ) / increase of Tmax as compared to apomorphine HCl / increase of t1/2z as compared to apomorphine HCl: free apomorphine, single SC 1.5 mg/kg; for AUC0-168 / AUC0-inf / AUC0-last / Cmax / Tmax / time post-dose by which drug is completely cleared and below the limit of quantification (BLQ): plasma; for AUC0-168 / AUC0-inf / AUC0-last / Cmax / Tmax: female monkeys, mean n=3; for period of sustained release of apomorphine: single SC injection 1.5 mg/kg, monkeys
skin at injection site [3] = details: for tolerability after SC injection: primates, SC injection 3.0 mg/kg (apomorphine equivalents), multiple doses; for skin at the site of injection 12 hours after the third dose (day 14): weekly SC injection 3.0 mg/kg (apomorphine equivalents)
Experimental: Non-naïve female cynomolgus monkeys were used in the study. […] They were assigned to three groups with 3 animals per group.
The test articles were dosed subcutaneously (as described in Table 6) in the right shoulder on days 0 and 14 and in the left shoulder on days 7 and 21, of each monkey. […] Photographs were taken to study the severity of the reactions and observations that were recorded.
To determine if the Apo-A, Apo-B, and Apo-G conjugates induced skin reactions at a concentration of 3.0 mg/kg (as compared to the 1.5 mg/kg dose described in Examples 18 and 20), all animals were/will be monitored daily for these skin reactions. Photographs were/will be taken to study the skin reactions and observations were/will be recorded. Bases on the presence of erythema and swelling, the skin reactions were/will be recorded as none, slight, well defined, moderate and severe.

[4] = single SC injection 1.5 mg/kg; for PR (percent of released apomorphine): AUC0-last(free) relative to AUC0-last(total); for PR (percent of released apomorphine) / AUC0-168 / AUC0-inf / AUC0-last / CL/F obs / Cmax / Tmax: mean; for time by which drug is cleared and BLQ / AUC0-168 / AUC0-inf / AUC0-last / CL/F obs / Cmax / Tmax: total apomorphine, plasma
in vivo = details: female, cynomolgus monkey, sc, 1.5 mg/kg
[5] = female, cynomolgus monkey, in vivo, sc, 1.5 mg/kg
[6] = single SC 1.5 mg/kg, per animal

| Compound | tolerability after SC injection (skin at injection site [1]) | Observations (skin reaction), Day 1 to Day 15 (skin at injection site [1]; [6]) | Observations (skin reaction), Day 15 (skin at injection site [1]; [6]) | dose dumping (burst effect) [2] | AUC0-168 [2] | AUC0-inf [2] | AUC0-last [2] | Cmax [2] | Tmax [2] | time post-dose by which drug is completely cleared and below the limit of quantification (BLQ) [2] | increase of Tmax as compared to apomorphine HCl [2] | increase of t1/2z as compared to apomorphine HCl [2] | period of sustained release of apomorphine [2] | tolerability after SC injection (skin at injection site [3]) | skin at the site of injection 12 hours after the third dose (day 14) (skin at injection site [3]) | PR (percent of released apomorphine) [4] | time by which drug is cleared and BLQ [4] | AUC0-168 [4] | AUC0-inf [4] | AUC0-last [4] | other results |
| --- | --- | --- | --- | --- | --- | --- | --- | --- | --- | --- | --- | --- | --- | --- | --- | --- | --- | --- | --- | --- | --- |
| POZ10p20k[Apo(4-butanoate)(4-triazolebutanoate)]10 [POZ-Apomorphine A] | well tolerated | Day 1 to Day 15: No erythema and swelling. | Day 15: Skin appears normal. | no evidence of dose dumping | 647 ng·h/mL | 666 ng·h/mL | 656 ng·h/mL | 6.6 ng/mL | 88 h | ≤ 240 h | 22 times | 13.2 times | 5 days | well tolerated | appeared normal with no sign of erythema and swelling | 4.8% | ≤ 240 h | 13368 ng·h/mL | 138986 ng·h/mL | 13835 ng·h/mL | CL/F obs [4]: 1.82 mL/min/kg; Cmax [4]: 151.3 ng/mL; Tmax [4]: 88 h |
| POZ10p20k[Apo(2-methylpropanoate)(4-triazolebutanoate)]10 [POZ-Apomorphine B] | well tolerated | Day 1 to Day 15: No erythema and swelling. | Day 15: Skin appears normal. | no evidence of dose dumping | 478 ng·h/mL | 968 ng·h/mL | 640 ng·h/mL | 3.5 ng/mL | 104 h | > 240 h | 26 times | 84.3 times | 10 days | well tolerated | appeared normal with no sign of erythema and swelling | 5.5% | > 240 h | 8317 ng·h/mL | 16456 ng·h/mL | 11610 ng·h/mL | CL/F obs [4]: 1.52 mL/min/kg; Cmax ([4]; 1.5 mg/kg): 72.6 ng/mL and 72.7 ng/mL; Tmax ([4]; 1.5 mg/kg): 136.0 h |
| CN1CCc2cccc3c2[C@H]1Cc1ccc(O)c(O)c1-3 [apomorphine HCl, Apomorphine hydrochloride] | – | – | – | – | – | – | – | – | – | – | – | – | – | – | – | – | – | – | – | – | Observations (skin reaction), Day 15 (skin at injection site [1]; female, cynomolgus monkey, in vivo, sc, 1.5 mg/kg, 15 day): Day 15: Skin appears normal.; AUC0-inf (in vivo): 90.2 ng·h/mL; CL/F (in vivo): 289 mL/min/kg; Cmax (in vivo): 10.6 ng/mL; Vd/F (in vivo): 43.6 L/kg; AUC(0-t) (in vivo; cynomolgus): 89.8 ng·h/mL; Cmax (in vivo; cynomolgus): ~10.6 ng/mL; Tmax (in vivo; cynomolgus): 4 h; time post-dose by which drug is completely cleared and below the limit of quantification (BLQ) [5]: ≤ 24 h |
